Test system: F1*sub RNA substrate (template-directed ligation)
Assay: fraction ligated after 30 min (ligated reads / total reads); higher = more ligase activity; sequences stand for … in GAGACCGCAACTGAAAAGTTGT…AGTTCTGCACGTAGAAGCAAAAGGC
Settings: 42 °C
Procedure, shortened: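 Oligo-pool templates of ligase ribozyme variants were PCR-amplified, T7-transcribed and gel-purified. Ligated and unligated bands were gel-separated, reverse transcribed with barcoded primers, and MiSeq-sequenced; core bases were filtered at quality ≥20. Fraction ligated per variant was ligated reads over total reads.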

Sequence: TATCACTTGTGTAAGACACTTTGGATGGGTT [3d1808]
- fraction ligated: 0.615

Sequence: TATCCTTGTGTAAGAACTTTGGATGGGTTGA [3d1005]
- fraction ligated: 0.818

Sequence: TACACTTGTCGTAAGACACTTGGATGGGTTG [3d720]
- fraction ligated: 0.106

Sequence: TATCCTTGTCGAAGACACTTTGATGGGTTGA [3d1036]
- fraction ligated: 0.781

Sequence: TACACTTGTCGAAGACACTTTGGATGGGTTG [3d658]
- fraction ligated: 0.593

Sequence: TATCATTGTCGTAAACATTTGGATGGGTTGA [3d1229]
- fraction ligated: 0.798

Sequence: TATCCTTGTCTAAGACACTTTGGAGGGTTGA [3d1025]
- fraction ligated: 0.0172

Sequence: TAACTTGTGTAAGACACTTTGGATGGGTTGA [3d512]
- fraction ligated: 0.547

Sequence: TATCACTTGTCGTAAAACTTTGATGGGTTGA [3d2061]
- fraction ligated: 0.781

Sequence: TACACTTGTGTAGACACTTTGGATGGGTTGA [3d619]
- fraction ligated: 0.0703

Sequence: TATACTTTCGTAAGACACTTTGGATGGGTTGA [2d72]
- fraction ligated: 0.542

Sequence: TATCACTTGTGTAAACATTTGGATGGGTTGA [3d1746]
- fraction ligated: 0.833

Sequence: TATCACTTGGTAAGCACTTTGGATGGGTTGA [3d1588]
- fraction ligated: 0.818

Sequence: TATCACTTGTCTAAGACCTTTGGATGGTTGA [3d1868]
- fraction ligated: 0.269

Sequence: TATCACTTGTCTAAGACACTTTGTGGGTTGA [3d1886]
- fraction ligated: 0.044

Sequence: TATCACTTTCGAAGACACTTTGGATGGGTTA [3d1504]
- fraction ligated: 0.382

Sequence: TATCACTTGTCGTAACACTTTGGAGGGTTGA [3d1999]
- fraction ligated: 0.0382

Sequence: TTCACTTGTCGTAAGACACTTTGGAGGGTTG [3d503]
- fraction ligated: 0.103

Sequence: TATCCTTTCGTAAGACCTTTGGATGGGTTGA [3d975]
- fraction ligated: 0.771

Sequence: TATACTTGTCGTAGACATTTGGATGGGTTGA [3d875]
- fraction ligated: 0.759

Sequence: TATCATTGCGTAAGAACTTTGGATGGGTTGA [3d1162]
- fraction ligated: 0.837

Sequence: TATCACTTTCGTAAGACATTTGGAGGGTTGA [3d1557]
- fraction ligated: 0.0972

Sequence: TATCCTTGTGTAAGACACTTTGGATGGTTGA [3d1012]
- fraction ligated: 0.0285

Sequence: TATCCTTGGTAAGACACTTTGGATGGGTTGA [3d984]
- fraction ligated: 0.796

Sequence: TATACTTGTCGAAGAACTTTGGATGGGTTGA [3d860]
- fraction ligated: 0.748

Sequence: TTCACTTGTCGAAGACACTTTGGATGGGTTA [3d427]
- fraction ligated: 0.28

Sequence: ACACTTGTCGTAAGACATTTGGATGGGTTGA [3d38]
- fraction ligated: 0.484

Sequence: TATCACTTTCGTAGACCTTTGGATGGGTTGA [3d1510]
- fraction ligated: 0.78

Sequence: TACACTGTCGTAAGACACTTTGGTGGGTTGA [3d580]
- fraction ligated: 0.151

Sequence: TTCACTTGTCGTAGACACTTTGGTGGGTTGA [3d437]
- fraction ligated: 0.0435

Sequence: TATACTTTCTAAGACACTTTGGATGGGTTGA [3d797]
- fraction ligated: 0.562

Sequence: TATACTTGTCGTAAGACACTTTGGATGGGTTGA [1d4]
- fraction ligated: 0.791

Sequence: TATCACTTGTCTAAGACATTTGGATGGTTGA [3d1875]
- fraction ligated: 0.137

Sequence: TATCACTTGTCGTAAGAACTTGGATGGGTTGA [2d255]
- fraction ligated: 0.805

Sequence: TATACTTGTCGTAGACACTTTGGATGGGTTGA [2d77]
- fraction ligated: 0.67

Sequence: TATCTGTCGTAAGACACTTTGGATGGGTTGA [3d739]
- fraction ligated: 0.775

Sequence: TATCACTTGTCTAAGACACTTGGATGGTTGA [3d1882]
- fraction ligated: 0.12

Sequence: TATCACTTGTCGTAAGACACTTTGGATGGTTA [2d296]
- fraction ligated: 0.447

Sequence: TATCACTTGTCGTAAACACTTTGGATGGTTA [3d2101]
- fraction ligated: 0.169

Sequence: TATACTTGCTAAGACACTTTGGATGGGTTGA [3d813]
- fraction ligated: 0.669

Sequence: TATACTTGTCGTAAGACACTTTGGAGGGTTG [3d944]
- fraction ligated: 0.00819

Sequence: TTCACTTGTCGTAAGACCTTTGGTGGGTTGA [3d472]
- fraction ligated: 0.0157

Sequence: TATCACTTTCGTAAGCATTTGGATGGGTTGA [3d1531]
- fraction ligated: 0.791

Sequence: TATCCTTGTGTAAGACACTTTGGTGGGTTGA [3d1010]
- fraction ligated: 0.062

Sequence: TATCACTTGTCGAAGAACTTTGGATGGTTGA [3d1940]
- fraction ligated: 0.187

Sequence: TATCACTTGTGTAAGACACTTTGGATGGTTG [3d1807]
- fraction ligated: 0.115

— the supplement of paper PMC6755084
